B1: EHMT1 (parent)
chain: FHKDCASRVNNASYCPHCGEESSK
B2: ZBED2 (parent)
chain: FHLAPARAGHHPNQYATCRLCGRQ

Variants of: B1
Assay: protein stability index of a GFP-peptide fusion (GPS, HEK-293T) (PSI 1-6); higher = more stable
Conditions: c terminus: a fixed tail appended
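Also: lentivirally expressed fusions sorted by FACS into six bins by GFP to DsRed ratio, PSI derived from sequencing read proportions per bin multiplied by bin number.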

Protein stability index of substitutions, site by site:
S22: H 4.09, L 3.22, V 3.38, E 4.01, N 3.93, W 2.54, G 2.81, K 3.77, P 3.03, Q 3.55, R 3.05, T 3.54, M 3.31, I 3.68, A 3.46, F 3.2, C 3.59, Y 3.36, D 3.35
C15: H 3.56, E 4.22, Y 2.74, R 3.49, Q 3.67, P 3.75, L 3.45, D 3.89, N 3.88, I 3.32, S 3.55, M 3.16, V 3.67, T 3.59, F 3.04, K 3.68, G 3.82, A 3.32, W 2.08
K24: M 3.26, W 3.05, N 2.99, L 3.43, F 3.07, R 2.5, G 3.5, C 3.7, T 3.25, Q 3.49, Y 2.9, E 3.11, I 3.27, V 3.47, P 3.22, H 3.45, A 2.92, S 3.48, D 3.58
S13: Q 3.8, R 3.16, H 3.66, P 3.12, L 2.62, G 3.97, N 3.6, K 3.46, F 2.34, C 2.37, W 2.15, D 3.81, A 3.36, M 3.13, T 3.72, E 3.77, Y 2.34, I 2.17, V 2.76
S23: F 3.63, D 3.39, N 3.41, W 2.69, A 3.63, H 3.48, Q 3.89, C 4.21, P 3.15, I 3.87, G 3.34, V 3.41, L 3.15, E 3.21, K 3.16, R 3.21, M 3.49, Y 3.6, T 3.72
G19: H 3.36, I 3.87, W 2.96, C 3.59, S 3.48, Q 3.35, M 3.55, T 3.51, K 3.65, F 3, P 3.75, Y 3.91, N 3.5, L 3.67, A 3.93, D 3.9, V 4.11, R 2.84, E 4.05
A12: Y 2.85, V 3, W 2.54
P16: S 3.23, W 1.66, K 3.57, D 3.52, A 3.24, L 3.35, H 3.15, G 3.24, N 3.29, V 3.89, F 2.73, T 3.42, Q 3.61, C 3.11, R 2.96, E 3.94, M 3.07, I 3.36, Y 2.58
C18: F 2.93, V 3.75, D 4.03, R 3.73, I 3.04, S 3.68, T 3.58, W 2.31, N 3.67, G 3.63, E 4.36, L 2.76, M 2.96, A 3.76, P 3.79, Y 3.16, Q 3.59, K 3.85, H 3.62
E21: H 3, A 3.52, G 3.29, I 2.83, C 3.07, V 2.32, W 2.8, F 2.93, M 2.64, T 3.4, Y 2.63, P 2.41, Q 3.12, L 2.55, S 2.71, D 3.22, R 2.92, K 3.22, N 3.17
Y14: A 3.31, T 3.73, N 3.75, D 3.77, E 4.05, P 3.9, V 3.44, C 3.66, F 3.36, G 3.38, R 3.52, H 3.47, M 3.59, S 3.26, I 3.47, W 2.45, Q 4, K 3.59, L 3.82
H17: C 3.45, I 3.35, P 2.87, E 3.47, L 3.05, W 2.16, K 3.43, Y 2.87, G 3.18, A 3.68, M 3.14, Q 3.21, V 3.54, F 2.96, T 3.58, R 3.5, D 3.84, N 3.85, S 3.4
E20: C 3.55, L 2.78, M 3.15, H 2.99, N 3.37, A 3.21, T 3.19, D 3.92, P 3.27, G 3.6, K 3.68, S 3.16, R 3.16, Q 3.14, F 2.93, Y 3.46, W 3.77, V 2.94, I 2.95

Variants of: B2
Assay: as above
Conditions: c terminus: a fixed tail appended

Protein stability index: each site, then its substitutions
F1: L 2.13, M 2.1, S 3.33, D 3.36, A 2.9, W 1.59, Y 1.43, T 2.45, P 3.07, V 2.74, R 2.77, I 2.21, G 1.71, N 2.73, C 2.58, K 2.53, E 3.31, H 2.46, Q 2.78
A4: N 1.48, K 2.32, G 2.19, I 2.53, F 2.14, H 1.95, D 1.59, L 1.17, T 1.84, E 2.05, W 2.73, C 2.48, S 2.74, Q 1.91, M 1.39
H2: D 2.41, F 1.42, T 2.76, I 2.37, L 1.86, G 1.88, M 2.43, W 1.26, E 2.6, S 1.59, P 2.78, Q 2.51, A 1.46, N 2.65, K 1.95, C 1.66
A6: L 1.67, D 1.89, W 1.36, I 1.71, E 2.36, F 1.68, S 1.61, N 1.65, Q 1.8, G 2.54, H 1.92, M 1.67, R 1.77, V 2.15, K 1.4, T 1.51, P 1.93, C 3
P5: K 1.83, V 1.96, G 1.77, Q 2.02, D 2.83, N 1.84, S 1.24, T 2.32, C 2.04, I 2.13, H 1.99, L 2, E 2.36, A 2.78, M 1.05, Y 1.52, R 1.64, F 2.03
L3: I 1.38, N 2.23, V 1.84, D 2.5, S 1.45, M 1.84, C 1.71, Q 1.13, G 1.53, E 2.75, Y 1.95, A 1.61, T 2.25, F 1.93, H 1.71, P 3.45, K 2.09

Reference: the supplement of paper PMC10567573
